According to PMC10668032, “Altered binding affinity of SIX1-Q177R correlates with enhanced WNT5A and WNT pathway effector expression in Wilms tumor”:
Substitutions are numbered along the chain they refer to.

T1: SIX1 (human, UniProt Q15475 1-284)
T1 sequence: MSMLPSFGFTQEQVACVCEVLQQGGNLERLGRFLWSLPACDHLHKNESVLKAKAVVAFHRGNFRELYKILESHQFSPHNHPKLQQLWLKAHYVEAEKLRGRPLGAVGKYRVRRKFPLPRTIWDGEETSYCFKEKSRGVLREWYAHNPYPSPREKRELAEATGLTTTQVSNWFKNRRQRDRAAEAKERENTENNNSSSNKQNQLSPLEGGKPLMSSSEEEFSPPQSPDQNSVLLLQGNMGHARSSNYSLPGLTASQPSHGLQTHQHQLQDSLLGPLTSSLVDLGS

B1: WNT5A_promoter_EMSA (dsDNA)
DNA 1: CCCGCCCTAAGTGTCAAATTTCCTCCAGGGGAG
DNA 2: CTCCCCTGGAGGAAATTTGACACTTAGGGCGGG
B2: WNT5A_promoter_EMSAmut (dsDNA)
DNA 1: B1 DNA 1 with G13A
DNA 2: B1 DNA 2 with C21T

Tests used:
SIX1 [1] = biological target: T1, SIX1; assay: EMSA; EMSA: Active Motif Gelshift or Thermo LightShift chemiluminescent kit binding buffer, no glycerol, no poly d(I-C), RT 25 min; protein dilutions 1-300 nM; 6% gel in 0.5x TBE; pH and salt not given; details: protein: recombinant; tags: N-terminal HA from pGEX-6p1-N-HA (GST removed with PreScission); label: biotin 3' end (both strands, Pierce 3' end-labeling kit); blunt
SIX1 [2] = biological target: T1, SIX1; assay: EMSA; modest increase in affinity vs N1; EMSA: Active Motif Gelshift or Thermo LightShift chemiluminescent kit binding buffer, no glycerol, no poly d(I-C), RT 25 min; protein dilutions 1-300 nM; 6% gel in 0.5x TBE; pH and salt not given; details: protein: recombinant; tags: N-terminal HA from pGEX-6p1-N-HA (GST removed with PreScission); label: biotin 3' end (both strands, Pierce 3' end-labeling kit); blunt

Binder | binding signal (SIX1 [1]) | binding result (SIX1 [2])
B1 | ~0.1 affinity relative to SIX1-Q177R on same probe | –
B2 | – | binds
